Holding throughout (experiment): SPR
Experiment [1] has as its target T1, H1N1 A/California/07/2009 hemagglutinin ectodomain, biotinylated HA0 (influenza A virus A/California/07/2009 …, biotin on the BirA site).
The target of experiment [2] is T2, H1N1 A/New Caledonia/20/1999 hemagglutinin ectodomain, biotinylated HA0 (influenza A virus A/New …, biotin on the BirA site).
Experiment [3] has as its target T1, H1N1 A/California/07/2009 hemagglutinin …. This is another data set of the same source.
The target of experiment [4] is T2, H1N1 A/New Caledonia/20/1999 …. This is another data set of the same source.
Experiment [5] has as its target T3, H5N1 A/Vietnam/1203/2004 hemagglutinin ectodomain, biotinylated HA0 (influenza A virus A/Vietnam/1203/2004 …).
The target of experiment [6] is T3, H5N1 A/Vietnam/1203/2004 hemagglutinin …. This is another data set of the same source.

Positions of bridges follow the written chain, without caps; N, C: chain ends. Non-standard residues stand in square brackets, D forms with d. No end group written: not given here.

P[dP]SLYEDPLGVAGGMGV (also: cyclic peptide, ring closure not given here) [cyclic peptide CP2]: the Kd is 7280 nM in experiment [1] and 3080 nM in experiment [2]. The values for the koff in experiment [3] and in experiment [4] were 3.48 s⁻¹ and 1.08 s⁻¹, respectively.
Turning to LYEDPLGVAGGMG (non-template-based cyclic peptide (direct head-to-tail cyclization)) [cyclic peptide CP14], the Kd in experiment [5] was 2740 nM; in experiment [1], 1070 nM; in experiment [2], 640 nM.
CLYRDPLGVAGGMGC (disulfide 1-15) [cyclic peptide CP8]: the Kd in experiment [5] is 320 nM; in experiment [1] it was 330 nM; in experiment [2], 850 nM. The off-rate (koff) stood at 0.98 s⁻¹ in experiment [6], 0.1 s⁻¹ in experiment [3] and 0.23 s⁻¹ in experiment [4].
As to PGVSLYEDPLGVAGGMGVY (also: cyclic peptide, ring closure not given here) [cyclic peptide CP4], the Kd came to 290 nM in experiment [5], 120 nM in experiment [1] and 360 nM in experiment [2]. Further, the koff in experiment [6] was determined as 0.32 s⁻¹; in experiment [3], 0.04 s⁻¹; in experiment [4], 0.06 s⁻¹.
With CYRDPLGVAGEMC (also: cyclic peptide, ring closure not given here) [cyclic peptide CP13], the Kd in experiment [5] came to 8910 nM; in experiment [1], 12000 nM; in experiment [2] it was 32000 nM.
Turning to [dP]PVSLYEDPLGVAGGMGVY (also: cyclic peptide, ring closure not given here) [cyclic peptide CP1], the Kd in experiment [5] stood at 1800 nM; in experiment [2], 20 nM. The figures for the koff in experiment [6], in experiment [3] and in experiment [4] were 0.14 s⁻¹, 0.01 s⁻¹ and 0.02 s⁻¹, respectively.

B1: cyclic peptide CP3 (peptide)
chain: PPLYEDPLGVAGGMG
modifications: also: one Pro of the Pro-Pro template is D, which not given here, cyclic peptide, ring closure not given here
For B1, the Kd in experiment [5] stood at 2040 nM; in experiment [1], 2390 nM; in experiment [2] it was 1180 nM. In addition, the off-rate constant (koff) is 0.76 s⁻¹ in experiment [6], 1.07 s⁻¹ in experiment [3] and 0.45 s⁻¹ in experiment [4].
Consider PGLYEDPLGVAGGMG (also: cyclic peptide, ring closure not given here) [cyclic peptide CP6], for which the dissociation constant Kd came out at 3020 nM in experiment [5], 1910 nM in experiment [1] and 800 nM in experiment [2]. Besides, the koff in experiment [6] stood at 0.95 s⁻¹; in experiment [3], 0.83 s⁻¹; in experiment [4] it was 0.42 s⁻¹.
